According to patent US8318163 (Genentech, dated 2012):

Assays:
[1] = molecular target: the molecule itself; experiment: multi-angle light scattering, self-association
human Nrp2 b1b2 = molecular target: T1, human Nrp2 b1b2 (human, UniProt O60462 275-595); experiment: BIAcore (SPR), 500 nM Nrp protein injected over immobilized IgG at 25 C
T1 construct: range 275-595; Range is that of the crystallization construct; also called Nrp2 b1b2 domains
T1 sequence (looked up): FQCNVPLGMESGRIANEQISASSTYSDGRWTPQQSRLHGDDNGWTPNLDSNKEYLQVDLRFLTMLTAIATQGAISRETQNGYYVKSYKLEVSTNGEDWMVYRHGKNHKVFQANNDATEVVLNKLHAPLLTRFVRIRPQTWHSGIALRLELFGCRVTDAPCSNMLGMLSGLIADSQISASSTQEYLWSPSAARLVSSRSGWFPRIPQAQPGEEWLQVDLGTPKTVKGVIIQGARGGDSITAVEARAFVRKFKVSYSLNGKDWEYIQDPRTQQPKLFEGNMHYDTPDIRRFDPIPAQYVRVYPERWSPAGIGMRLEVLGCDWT
Text: (§1) Figure 11: FIG. 11—Analysis of anti-Nrp antibody binding kinetics. BIAcore kinetic analysis of anti-panNrp[4] antibody.

human Nrp2 a1a2b1b2 = molecular target: T2, human Nrp2 a1a2b1b2 (human, UniProt O60462 21-595, N-glycosylated (two sites within the a2 domain seen in the monoclinic crystal form)); experiment: BIAcore, IgG immobilized on the chip, human NRP protein injected, 25 C; Nrp2 (second of the two affinities)
T2 construct: range 1-595; The printed range begins at Met1 and so includes the native signal peptide, which is cleaved on secretion
T2 sequence: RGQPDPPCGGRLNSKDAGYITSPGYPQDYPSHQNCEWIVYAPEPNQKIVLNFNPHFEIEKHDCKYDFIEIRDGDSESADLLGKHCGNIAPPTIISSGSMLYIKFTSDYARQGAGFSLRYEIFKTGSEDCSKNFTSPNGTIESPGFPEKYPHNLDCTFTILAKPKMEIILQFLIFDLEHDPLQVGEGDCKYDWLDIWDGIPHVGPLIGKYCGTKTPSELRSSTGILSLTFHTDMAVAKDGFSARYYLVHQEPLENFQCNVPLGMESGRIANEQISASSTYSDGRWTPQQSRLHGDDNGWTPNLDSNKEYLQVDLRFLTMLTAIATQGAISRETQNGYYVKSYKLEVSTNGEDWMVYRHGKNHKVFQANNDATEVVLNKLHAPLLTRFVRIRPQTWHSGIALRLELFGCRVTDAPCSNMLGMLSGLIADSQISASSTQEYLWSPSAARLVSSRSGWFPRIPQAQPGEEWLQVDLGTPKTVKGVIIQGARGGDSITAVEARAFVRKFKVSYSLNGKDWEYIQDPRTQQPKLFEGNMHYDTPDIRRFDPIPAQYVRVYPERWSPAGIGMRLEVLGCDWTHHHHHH
Text: as §1

[2] = molecular target: T3, human Nrp1 protein (BIAcore analyte) (human, UniProt O14786 22-586, limits assumed); experiment: BIAcore, IgG immobilized on the chip, human NRP protein injected, 25 C; Nrp1 (first of the two affinities)
T3 construct: no residue range for such an Nrp1 construct is printed; also called neuropilin-1
T3 sequence (looked up): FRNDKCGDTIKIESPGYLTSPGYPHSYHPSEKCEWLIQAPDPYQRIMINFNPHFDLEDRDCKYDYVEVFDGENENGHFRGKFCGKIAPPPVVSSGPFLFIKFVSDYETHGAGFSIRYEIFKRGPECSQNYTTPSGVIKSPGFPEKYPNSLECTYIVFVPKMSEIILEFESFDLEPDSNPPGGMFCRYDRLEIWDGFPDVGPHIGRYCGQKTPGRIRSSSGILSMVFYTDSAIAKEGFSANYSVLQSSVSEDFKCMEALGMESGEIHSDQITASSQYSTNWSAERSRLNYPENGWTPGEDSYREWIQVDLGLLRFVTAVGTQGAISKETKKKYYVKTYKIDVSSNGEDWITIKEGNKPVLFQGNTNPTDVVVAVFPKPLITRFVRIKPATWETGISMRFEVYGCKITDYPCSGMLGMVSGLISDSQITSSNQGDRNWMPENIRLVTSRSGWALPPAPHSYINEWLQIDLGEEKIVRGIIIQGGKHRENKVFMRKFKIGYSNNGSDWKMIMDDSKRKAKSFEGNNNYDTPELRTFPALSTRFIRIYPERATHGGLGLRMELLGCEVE
Text: as §1

B1: human Nrp2 a2b1b2 (receptor, UniProt O60462 145-595, looked up)
chain: GSEDCSKNFTSPNGTIESPGFPEKYPHNLDCTFTILAKPKMEIILQFLIFDLEHDPLQVGEGDCKYDWLDIWDGIPHVGPLIGKYCGTKTPSELRSSTGILSLTFHTDMAVAKDGFSARYYLVHQEPLENFQCNVPLGMESGRIANEQISASSTYSDGRWTPQQSRLHGDDNGWTPNLDSNKEYLQVDLRFLTMLTAIATQGAISRETQNGYYVKSYKLEVSTNGEDWMVYRHGKNHKVFQANNDATEVVLNKLHAPLLTRFVRIRPQTWHSGIALRLELFGCRVTDAPCSNMLGMLSGLIADSQISASSTQEYLWSPSAARLVSSRSGWFPRIPQAQPGEEWLQVDLGTPKTVKGVIIQGARGGDSITAVEARAFVRKFKVSYSLNGKDWEYIQDPRTQQPKLFEGNMHYDTPDIRRFDPIPAQYVRVYPERWSPAGIGMRLEVLGCDWT
notes: range 145-595; Purified on Ni-NTA; the tag of this construct is not described
[1]
  binding result: no binding

B2: full-length human Nrp2-ECD (a1a2b1b2c) (receptor)
chain: RGQPDPPCGGRLNSKDAGYITSPGYPQDYPSHQNCEWIVYAPEPNQKIVLNFNPHFEIEKHDCKYDFIEIRDGDSESADLLGKHCGNIAPPTIISSGSMLYIKFTSDYARQGAGFSLRYEIFKTGSEDCSKNFTSPNGTIESPGFPEKYPHNLDCTFTILAKPKMEIILQFLIFDLEHDPLQVGEGDCKYDWLDIWDGIPHVGPLIGKYCGTKTPSELRSSTGILSLTFHTDMAVAKDGFSARYYLVHQEPLENFQCNVPLGMESGRIANEQISASSTYSDGRWTPQQSRLHGDDNGWTPNLDSNKEYLQVDLRFLTMLTAIATQGAISRETQNGYYVKSYKLEVSTNGEDWMVYRHGKNHKVFQANNDATEVVLNKLHAPLLTRFVRIRPQTWHSGIALRLELFGCRVTDAPCSNMLGMLSGLIADSQISASSTQEYLWSPSAARLVSSRSGWFPRIPQAQPGEEWLQVDLGTPKTVKGVIIQGARGGDSITAVEARAFVRKFKVSYSLNGKDWEYIQDPRTQQPKLFEGNMHYDTPDIRRFDPIPAQYVRVYPERWSPAGIGMRLEVLGCDWTDSKPTVETLGPTVKSEETTTPYPTEEEATECGENCSFEDDKDLQLPSGFNCNFDFLEEPCGWMYDHAKWLRTTWASSSSPNDRTFPDDRNFLRLQSDSQREGQYARLISPPVHLPRSPVCMEFQYQATGGRGVALQVVREASQESKLLWVIREDQGGEWKHGRIILPSYDMEYQIVFEGVIGKGRSGEIAIDDIRISTDVPLENCMEPISAFAGENFKVDIPEIHEREGYEDEIDDEYEVDWSNSSSATSGSGAPSTDKEKSWLYTLDPHHHHHH
notes: extracellular domain
[1]
  binding result: no binding

B3: anti-panNrp^A antibody, clone YW68.11.26 (IgG) (antibody, V domains shown)
VH: EVQLVESGGGLVQPGGSLRLSCAASGFTISGYGIHWVRQAPGKGLEWVAYIYPDSGYTDYADSVKGRFTISADTSKNTAYLQMNSLRAEDTAVYYCAREDFRNRRRLWYVMDYWGQGT
VL: DIQMTQSPSSLSASVGDRVTITCRASQDVSTAVAWYQQKPGKAPKLLIYSASFLYSGVPSRFSGSGSGTDFTLTDSSLQPEDFATYYCQQAWAYLTTFGQGTKVEIKR
notes: Human IgG1 from a synthetic phage library; immobilized as IgG on the BIAcore chip
Human Nrp2 b1b2
  binding result: no binding (tested: 500 nM)
Human Nrp2 a1a2b1b2
  Kd: 0.15 nM
[2]
  Kd: 0.21 nM
